Reference: US20170224771A1, “HISTATINS AS THERAPEUTIC AGENTS FOR OCULAR SURFACE DISEASE” (RAPID PATHOGEN SCREENING, INC., priority 2014, published 2017)

Columns and labels:
[1] = Stability of ocular histatin formulation, determined by mass spectroscopy; format: physicochemical; conditions: 100 μg/mL in commercially-available gel tears lubricating eye drop with 0.25% PEG in aqueous buffered borate salt solution
Procedure: In some embodiments, the ocular histatin formulation is stable both at room temperature (25° C.) and at 45° C. for at least 90 days.

MMP-9 = MMP-9 (Homo sapiens, UniProt P14780); conditions: host protease; according to Gusman; cited from earlier work
MMP-2 = biological target: T1, MMP-2 (Homo sapiens, UniProt P08253); conditions: host protease; according to Gusman; cited from earlier work
T1 sequence (P08253 110-660): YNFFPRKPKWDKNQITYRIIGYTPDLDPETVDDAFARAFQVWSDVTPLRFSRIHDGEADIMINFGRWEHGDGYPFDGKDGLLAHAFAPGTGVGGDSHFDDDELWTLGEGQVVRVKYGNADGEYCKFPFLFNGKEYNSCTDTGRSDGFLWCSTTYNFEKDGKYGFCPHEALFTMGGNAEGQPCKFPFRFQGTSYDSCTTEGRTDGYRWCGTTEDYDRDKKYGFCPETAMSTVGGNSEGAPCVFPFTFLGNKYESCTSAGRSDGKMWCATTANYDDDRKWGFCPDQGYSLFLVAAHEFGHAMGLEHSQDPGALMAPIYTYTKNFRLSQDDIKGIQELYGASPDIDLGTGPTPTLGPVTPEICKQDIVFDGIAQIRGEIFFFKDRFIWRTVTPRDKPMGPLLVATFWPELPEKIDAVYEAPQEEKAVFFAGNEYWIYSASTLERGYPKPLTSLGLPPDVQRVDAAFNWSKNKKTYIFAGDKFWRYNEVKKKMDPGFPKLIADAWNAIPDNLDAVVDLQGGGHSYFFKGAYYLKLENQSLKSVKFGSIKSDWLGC

[2] = system: cultured ocular epithelial cells; conditions: cultured ocular epithelial cells in vitro; cited from earlier work

Sequence of MMP-9 (P14780 94-707): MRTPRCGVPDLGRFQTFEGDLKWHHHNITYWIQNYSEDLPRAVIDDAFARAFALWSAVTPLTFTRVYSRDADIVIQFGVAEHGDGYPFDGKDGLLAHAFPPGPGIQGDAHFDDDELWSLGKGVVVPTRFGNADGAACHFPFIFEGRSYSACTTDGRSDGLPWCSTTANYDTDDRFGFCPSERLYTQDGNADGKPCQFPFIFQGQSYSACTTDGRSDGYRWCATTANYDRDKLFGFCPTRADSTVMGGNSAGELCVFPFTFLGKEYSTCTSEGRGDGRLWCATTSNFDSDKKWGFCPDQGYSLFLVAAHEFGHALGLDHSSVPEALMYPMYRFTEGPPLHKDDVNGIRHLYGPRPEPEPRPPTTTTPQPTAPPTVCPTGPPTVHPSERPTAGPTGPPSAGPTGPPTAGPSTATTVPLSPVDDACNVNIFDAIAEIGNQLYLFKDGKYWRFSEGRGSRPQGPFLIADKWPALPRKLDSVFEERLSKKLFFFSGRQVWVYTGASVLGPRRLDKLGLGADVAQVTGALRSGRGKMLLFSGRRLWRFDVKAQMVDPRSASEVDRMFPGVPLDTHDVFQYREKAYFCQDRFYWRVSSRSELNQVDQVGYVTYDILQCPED

What does the source list for “cyclized histatin 1: sortase cyclized histatin (including all of Histatin 1) (GGDSHEKRHHGYRRKFHEKHHSHREFPFYGDYGSNYLYDNLPET; sortase cyclization)”?
time found to be stable ([1]; 25° C.): at least 505 days; time found to be stable ([1]; 45° C.): at least 90 days

Which “inhibition of MMP-9 activity” value (MMP-9) does the source give for “histatin 5: naturally occurring oral salivary peptide; SEQ ID NO: 30 peptide” here?
Its value is “greatly inhibited”.

And the “inhibition of MMP-2 activity” value (MMP-2)?
The value was “greatly inhibited”.

For Benzalkonium chloride, which cytotoxicity [2] is on record?
Its cytotoxicity is “significant cytotoxicity”.
